Experimental data taken from patent US20210277109A1 (SYSTIMMUNE, published 2021).

B1: 324E2 (antibody, V domains shown)
VH: QSVEESGGRLVTPGTPLTLTCTVSGFSLSNNAITWVRQAPGKGLEYIGIISSSGTTYYASWAKGRFTISKTSSTTVDLKMTSLTTEDTATYFCAGAFSVWGPGTLVTVSS
VL: AQVLTQTPSSVSAAVGGTVTINCQSSQSVNNNDLAWFQQKPGQPPKRLIYWASKLASGVPSRFKGSGSGTQFILTISDLECDDAATYYCAGGYSGNIYGFGGGTEVEVK
notes: chimeric counterpart m6; also called rabbit IgG of BCC well 324E2
B2: 330F11 chimeric rabbit/human IgG antibody (antibody, V domains shown)
VH: QSVEESGGRLVTPGTPLTLTCTVSGFSLNNYWMSWVRQAPGEGLEWIGTISSGAYTWFATWATGRFTISKTSTTVDLSITSPTTEDTATYFCARYSSTTDWTYFNIWGPGTLVTVSS
VL: DVVMTQTPASVEAAVGGTVTIKCQASQSINNYLAWYQQKPGQPPKLLIYRASTLESGVPSRFKGSGSGTQFTLTISDLECADAATYYCQSYNGVGRTAFGGGTEVEFKR
notes: Rabbit variable regions on human gamma-1 and human kappa constant domains
B3: 323D10 (antibody, V domains shown)
VH: QSVEESGGRLVTPGTPLTLTCTVSGFSLSRNAMNWVRQAPGKGLEYIGYISTSGTTFYANWVKGRFTISKTSTTVDLKMTSLTTEDTATYFCARDYNYAMDIWGQGTLVTVSS
VL: AIDLTQTPASVEAAVGGTITINCQASESISSWLAWYQQKPGQRPKLLIYETSKLASGVPPRFSGSGSGTQFTLTISGVQCDDAATYYCQSYYRINNIGYDNAFGGGTEVEFK
notes: chimeric counterpart m5; also called rabbit IgG of BCC well 323D10
B4: 226E12 (antibody, V domains shown)
VH: QSLEESGGRLVTPGTPLTLTCTASEFSLSNYYMSWVRQAPGEGLEWIGAINADSDNTWYPSWVKGRFTISKTSSTTVDLKITSPTIEDTATYFCARSVSNNFAEYNIWGPGTLVTVSS
VL: AYDMTQTPSSVSAAVGGTVTIKCQASQRIYSYLAWYQQKPGQPPKLLIYRASTLASGVPSRFKGSGSGTEYTLTISDLECADAATYYCQQGASMVDVENMFGGGTEVVVK
notes: chimeric counterpart m2; also called rabbit IgG of BCC well 226E12
B5: 324C7 chimeric rabbit/human IgG antibody (antibody, V domains shown)
VH: QSVEESGGRLVTPGTPLTLTCTVSGFSLSGAGVSWVRQAPGKGLEWIGYIDSGATTYYASWAKGRFTISKASTTVDLKIASPTTEDTATYFCARGYYGMDPWGQGTLVTVSS
VL: DIVMTQTPASVEVAVGGTVTIKCQASQNIGSDLAWYQQKPGQPPKLLIYTTSNLASGVPSRFKGSGSGTGFTLTISDLECADAASYCCQGGYFSGRNIYGNAFGGGTEVVVKR
notes: as for B2
B6: 323H7 chimeric rabbit/human IgG antibody (antibody, V domains shown)
VH: QEQLKESGGGLVTPGGTLTLTCTASGFTISRYHMTWVRQAPGKGLEWIGHIYVNNDDTDYASWAKGRFTISKTSTTVDLKITSPTTEDTATYFCARLDVGGGGAYIGDIWGQGTLVTVSS
VL: QAVVTQTPSSVSAAVGGTVTISCQSSQSVYNNNDLAWYQQKPGQPPKLLIYYASTLASGVSSRFKGSGSGTQFTLAISDLECDDSATYYCAGGYDTDGLDTFAFGGGTEVEVKR
notes: as for B2

Legend:
[1] = target: Human ROR1-CHO cells (human) (UniProt Q01973); experiment: FACS; BCC supernatant
Sequence of Human ROR1-CHO cells (human) (Q01973 30-937 limits assumed): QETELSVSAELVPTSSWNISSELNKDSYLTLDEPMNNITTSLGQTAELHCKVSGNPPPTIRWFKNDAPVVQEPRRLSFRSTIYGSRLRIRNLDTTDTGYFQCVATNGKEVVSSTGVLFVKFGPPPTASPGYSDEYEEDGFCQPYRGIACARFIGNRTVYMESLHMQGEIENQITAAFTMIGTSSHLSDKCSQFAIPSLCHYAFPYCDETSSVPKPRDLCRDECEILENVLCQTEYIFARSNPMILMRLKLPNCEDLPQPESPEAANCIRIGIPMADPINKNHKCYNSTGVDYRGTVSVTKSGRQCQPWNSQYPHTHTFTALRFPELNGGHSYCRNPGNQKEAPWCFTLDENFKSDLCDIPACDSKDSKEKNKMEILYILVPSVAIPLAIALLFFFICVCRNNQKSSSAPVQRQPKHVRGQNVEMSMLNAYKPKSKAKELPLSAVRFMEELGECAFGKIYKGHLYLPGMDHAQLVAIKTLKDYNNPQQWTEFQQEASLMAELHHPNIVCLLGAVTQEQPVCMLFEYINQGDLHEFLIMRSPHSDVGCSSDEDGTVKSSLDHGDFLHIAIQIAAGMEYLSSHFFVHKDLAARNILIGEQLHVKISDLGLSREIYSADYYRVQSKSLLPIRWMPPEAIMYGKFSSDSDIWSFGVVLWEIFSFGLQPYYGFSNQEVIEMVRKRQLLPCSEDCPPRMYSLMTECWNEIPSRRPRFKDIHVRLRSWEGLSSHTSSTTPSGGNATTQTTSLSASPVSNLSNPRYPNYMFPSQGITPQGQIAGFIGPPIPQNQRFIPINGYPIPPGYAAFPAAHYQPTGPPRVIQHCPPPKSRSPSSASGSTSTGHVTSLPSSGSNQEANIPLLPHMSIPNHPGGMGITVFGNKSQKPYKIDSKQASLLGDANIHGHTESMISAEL

[2] = target: T1, human ROR1 'Ig-Frizzled domain' (human, UniProt Q01973); experiment: ELISA, direct coat; BCC supernatant
T1 construct: used plain or biotinylated
T1 sequence (Q01973 30-305 limits assumed): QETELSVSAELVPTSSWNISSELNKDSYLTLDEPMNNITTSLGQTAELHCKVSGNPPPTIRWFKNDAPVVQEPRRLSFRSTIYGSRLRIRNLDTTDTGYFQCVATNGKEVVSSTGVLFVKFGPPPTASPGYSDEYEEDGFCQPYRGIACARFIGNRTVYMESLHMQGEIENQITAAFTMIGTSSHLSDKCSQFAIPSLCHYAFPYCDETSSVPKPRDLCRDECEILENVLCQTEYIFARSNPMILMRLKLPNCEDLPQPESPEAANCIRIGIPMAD

[3] = target: T2, human ROR1 'Frizzled-Kringle domain' (human, UniProt Q01973); experiment: ELISA, direct coat; BCC supernatant
T2 construct: used plain or biotinylated
T2 sequence (Q01973 165-406 limits assumed): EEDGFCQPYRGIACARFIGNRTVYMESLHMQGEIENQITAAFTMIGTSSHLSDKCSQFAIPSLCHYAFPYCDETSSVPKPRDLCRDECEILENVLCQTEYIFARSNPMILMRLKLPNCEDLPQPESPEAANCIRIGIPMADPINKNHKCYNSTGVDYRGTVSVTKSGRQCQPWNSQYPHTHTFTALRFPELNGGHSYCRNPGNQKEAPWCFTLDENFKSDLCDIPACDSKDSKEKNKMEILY

[4] = target: T3, mouse ROR1 (serum titer ELISA antigen) (mouse, UniProt Q9Z139 30-403, limits assumed); experiment: ELISA, direct coat; BCC supernatant
T3 sequence (Q9Z139 30-403 limits assumed): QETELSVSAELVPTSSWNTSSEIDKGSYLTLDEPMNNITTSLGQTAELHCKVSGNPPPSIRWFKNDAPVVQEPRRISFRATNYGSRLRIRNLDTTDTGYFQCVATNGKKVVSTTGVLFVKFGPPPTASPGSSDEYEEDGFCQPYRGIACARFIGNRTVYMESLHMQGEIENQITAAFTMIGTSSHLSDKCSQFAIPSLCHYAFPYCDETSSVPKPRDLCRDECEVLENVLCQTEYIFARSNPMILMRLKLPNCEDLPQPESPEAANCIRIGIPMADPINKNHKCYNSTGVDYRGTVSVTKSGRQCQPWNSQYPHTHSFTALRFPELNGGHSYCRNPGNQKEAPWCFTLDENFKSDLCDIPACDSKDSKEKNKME

[5] = target: T1, human ROR1 'Ig-Frizzled domain'; experiment: ELISA, biotinylated antigen on avidin plate; BCC supernatant
[6] = target: T2, human ROR1 'Frizzled-Kringle domain'; experiment: as above
Human ROR2 (human) = Human ROR2 (human) (UniProt Q01974); experiment: ELISA, direct coat; BCC supernatant
Sequence of Human ROR2 (human) (Q01974 34-403 limits assumed): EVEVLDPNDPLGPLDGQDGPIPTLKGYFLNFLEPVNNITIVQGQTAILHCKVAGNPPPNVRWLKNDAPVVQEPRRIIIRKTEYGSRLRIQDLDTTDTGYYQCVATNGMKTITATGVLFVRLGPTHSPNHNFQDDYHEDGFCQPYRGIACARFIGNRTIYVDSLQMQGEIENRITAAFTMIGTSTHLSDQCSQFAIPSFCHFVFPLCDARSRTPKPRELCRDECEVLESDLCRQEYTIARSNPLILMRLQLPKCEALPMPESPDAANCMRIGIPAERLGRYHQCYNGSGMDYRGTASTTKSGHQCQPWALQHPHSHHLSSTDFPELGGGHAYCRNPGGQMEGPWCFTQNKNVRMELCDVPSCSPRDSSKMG

[7] = target: recombinant human ROR1 extracellular domain protein (human) (UniProt Q01973); experiment: ELISA, direct coat; BCC supernatant
Sequence of recombinant human ROR1 extracellular domain protein (human) (Q01973 30-406): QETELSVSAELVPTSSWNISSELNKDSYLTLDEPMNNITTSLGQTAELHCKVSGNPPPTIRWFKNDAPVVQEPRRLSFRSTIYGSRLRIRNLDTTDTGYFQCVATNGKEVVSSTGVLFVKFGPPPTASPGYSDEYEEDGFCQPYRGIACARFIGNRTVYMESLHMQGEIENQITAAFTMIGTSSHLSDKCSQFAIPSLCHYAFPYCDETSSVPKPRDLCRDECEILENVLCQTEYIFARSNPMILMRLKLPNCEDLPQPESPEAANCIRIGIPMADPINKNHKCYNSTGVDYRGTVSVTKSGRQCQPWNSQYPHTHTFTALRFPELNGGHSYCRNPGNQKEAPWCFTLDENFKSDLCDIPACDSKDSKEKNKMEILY

[8] = target: T4, recombinant human ROR1 extracellular domain protein (human, UniProt Q01973 30-406); experiment: Octet, mono-valent binding to human ROR1
T4 construct: extracellular domain; Analyte in solution in the Octet assay; also called human ROR1 ECD
T4 sequence (Q01973 30-406): as above
Source text: The heavy and light chain expression plasmids generated from each well were transiently co-transfected to produce rabbit/human chimeric antibodies. Recombinant antibody supernatants were confirmed to contain anti-ROR1 antibodies using bio-layer interferometry analysis on a ForteBio Octet Red 96 instrument. Anti-human Fc biosensors (Pall ForteBio) were used to capture antibodies in the supernatants. Association to ROR1 was observed by real-time interferometry by placing the biosensors in wells containing recombinant human ROR1 extracellular domain protein. Dissociation was measured after transfer of the biosensors into wells containing 10× kinetics buffer (Pall ForteBio). The software provided by the manufacturer was used to analyze the interferometry data.

[9] = target: T1, human ROR1 'Ig-Frizzled domain'; experiment: Octet
Human ROR2 [10] = target: T5, Human ROR2 (human, UniProt Q01974); experiment: Octet
T5 sequence (Q01974 34-403 limits assumed): as the sequence (Q01974 34-403 limits assumed) above

[11] = target: T4, recombinant human ROR1 extracellular …; experiment: ELISA, direct coat; BCC supernatant
Human ROR2 [12] = target: T5, Human ROR2; experiment: ELISA, direct coat; BCC supernatant
[13] = target: T6, human ROR1 'Kringle domain' (human, UniProt Q01973, biotinylated); experiment: ELISA, biotinylated antigen on avidin plate; BCC supernatant
T6 construct: also called biotinylated human ROR1 Kringle domain
T6 sequence (Q01973 308-395 limits assumed): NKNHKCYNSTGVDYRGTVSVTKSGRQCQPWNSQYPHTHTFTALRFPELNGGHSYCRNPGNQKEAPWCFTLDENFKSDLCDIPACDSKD

Mouse ROR1-CHO = target: T7, Mouse ROR1-CHO (mouse, UniProt Q9Z139); experiment: FACS, mouse ROR1-CHO
T7 construct: expressed on the surface of CHO cells; also called mouse ROR1 on CHO cells
T7 sequence (Q9Z139 30-937 limits assumed): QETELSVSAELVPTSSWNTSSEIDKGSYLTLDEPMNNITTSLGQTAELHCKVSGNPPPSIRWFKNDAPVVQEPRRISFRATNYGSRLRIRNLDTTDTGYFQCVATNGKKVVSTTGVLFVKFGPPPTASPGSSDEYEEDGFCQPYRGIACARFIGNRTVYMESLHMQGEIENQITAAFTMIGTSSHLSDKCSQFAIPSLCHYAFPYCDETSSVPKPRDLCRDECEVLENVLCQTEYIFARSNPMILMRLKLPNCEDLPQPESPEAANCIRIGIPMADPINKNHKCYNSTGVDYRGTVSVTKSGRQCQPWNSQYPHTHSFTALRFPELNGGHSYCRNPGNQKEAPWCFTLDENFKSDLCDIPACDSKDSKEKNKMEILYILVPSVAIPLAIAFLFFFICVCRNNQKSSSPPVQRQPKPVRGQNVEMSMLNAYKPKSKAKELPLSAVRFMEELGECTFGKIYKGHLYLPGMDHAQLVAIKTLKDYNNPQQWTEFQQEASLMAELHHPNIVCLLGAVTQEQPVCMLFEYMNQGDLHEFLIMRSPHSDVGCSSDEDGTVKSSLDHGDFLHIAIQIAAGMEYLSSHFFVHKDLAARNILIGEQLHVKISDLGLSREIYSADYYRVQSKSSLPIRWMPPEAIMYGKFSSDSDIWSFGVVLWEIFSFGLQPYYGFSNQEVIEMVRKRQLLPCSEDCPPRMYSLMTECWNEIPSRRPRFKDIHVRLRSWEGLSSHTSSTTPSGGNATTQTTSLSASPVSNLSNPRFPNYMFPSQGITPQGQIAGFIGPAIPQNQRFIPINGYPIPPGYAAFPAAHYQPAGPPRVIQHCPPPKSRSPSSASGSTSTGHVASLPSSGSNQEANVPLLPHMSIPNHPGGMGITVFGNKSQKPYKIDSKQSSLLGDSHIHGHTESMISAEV

[14] = target: T2, human ROR1 'Frizzled-Kringle domain'; experiment: Octet
[15] = target: T3, mouse ROR1 (serum titer ELISA antigen); experiment: Octet
[16] = target: T4, recombinant human ROR1 extracellular …; experiment: Octet, bi-valent binding to human ROR1

Binder	FACS MFI [1] [MFI]	ELISA OD450 [2] [OD450]	ELISA OD450 [3] [OD450]	ELISA OD450 [4] [OD450]	ELISA OD450 [5] [OD450]	ELISA OD450 [6] [OD450]	ELISA OD450 (Human ROR2 (human)) [OD450]	koff [8] [s⁻¹]	binding result (Human ROR2 [10])	binding result (Mouse ROR1-CHO)	binding result [14]	binding result [15]	also measured
B1	25	1.29	0.18	2.17	0.62	0.1	0.21	–	–	–	–	–	ELISA OD450 [7]: 0.48 OD450
B2	–	–	–	–	–	–	–	1.26e-08	no binding	–	–	–	binding result [9]: no binding
B3	20	1.94	0.32	4	2.23	0.17	0.23	–	–	–	–	–	ELISA OD450 [11]: 2.32 OD450
B4	–	–	–	–	–	–	–	–	–	–	–	–	ELISA OD450 (Human ROR2 [12]): 0.09 OD450; ELISA OD450 [13]: 0.41 OD450
B5	–	–	–	–	–	–	–	1.35e-08	no binding	no binding	no binding	no binding	–
B6	–	–	–	–	–	–	–	2.08e-08	no binding	no binding	no binding	no binding	koff [16]: 0.0062 s⁻¹
